Measurements as given in US20090010966A1.

How the values were obtained:
[1] = molecular target: elongation factor 2 (EF2) (UniProt P55823)
[2] = molecular target: elongation factor 2 (EF2) (rabbit) (UniProt P55823); assay: cell-based or functional assay

Work on DT382 V28S yielded a Relative IVTT score (ratio (IC50 WT / IC50 mutant)) [1] of 3.61.
With “control DT(ΔR), truncated DT comprising the C and I domains only (from UniProt P00588 33-414) (enzyme)” the inhibition of transcription/translation of T7-luc plasmid (IVTT) [2] was 90%.
